Measurements taken from patent publication US20180009871A1 (INTARCIA THERAPEUTICS, published 2018).
Where no end group is shown, it is not given here. [ ]: non-standard residue; d: D form. Aib = CC(C)(N)C(=O)O

B1: Compound A78 (peptide)
peptide: YSHGTFTSDYSKYLD[Aib]KLAQEFV[Aib]WLEDEPSSGAPPPS-OH
modifications: N-terminus assumed
SMILES: CC(C)C[C@H](NC(=O)[C@H](CCCCN)NC(=O)C(C)(C)NC(=O)[C@H](CC(=O)O)NC(=O)[C@H](CC(C)C)NC(=O)[C@H](Cc1ccc(O)cc1)NC(=O)[C@H](CCCCN)NC(=O)[C@H](CO)NC(=O)[C@H](Cc1ccc(O)cc1)NC(=O)[C@H](CC(=O)O)NC(=O)[C@H](CO)NC(=O)[C@@H](NC(=O)[C@H](Cc1ccccc1)NC(=O)[C@@H](NC(=O)CNC(=O)[C@H](Cc1c[nH]cn1)NC(=O)[C@H](CO)NC(=O)[C@@H](N)Cc1ccc(O)cc1)[C@@H](C)O)[C@@H](C)O)C(=O)N[C@@H](C)C(=O)N[C@@H](CCC(N)=O)C(=O)N[C@@H](CCC(=O)O)C(=O)N[C@@H](Cc1ccccc1)C(=O)N[C@H](C(=O)NC(C)(C)C(=O)N[C@@H](Cc1c[nH]c2ccccc12)C(=O)N[C@@H](CC(C)C)C(=O)N[C@@H](CCC(=O)O)C(=O)N[C@@H](CC(=O)O)C(=O)N[C@@H](CCC(=O)O)C(=O)N1CCC[C@H]1C(=O)N[C@@H](CO)C(=O)N[C@@H](CO)C(=O)NCC(=O)N[C@@H](C)C(=O)N1CCC[C@H]1C(=O)N1CCC[C@H]1C(=O)N1CCC[C@H]1C(=O)N[C@@H](CO)C(=O)O)C(C)C
B2: Compound A6 (peptide)
peptide: WSQGTFTSDYSKYLD[Aib]KRAQEFV[Aib]WLEDEPSSGAPPPS-OH
modifications: N-terminus assumed
SMILES: CC(C)C[C@H](NC(=O)[C@H](Cc1ccc(O)cc1)NC(=O)[C@H](CCCCN)NC(=O)[C@H](CO)NC(=O)[C@H](Cc1ccc(O)cc1)NC(=O)[C@H](CC(=O)O)NC(=O)[C@H](CO)NC(=O)[C@@H](NC(=O)[C@H](Cc1ccccc1)NC(=O)[C@@H](NC(=O)CNC(=O)[C@H](CCC(N)=O)NC(=O)[C@H](CO)NC(=O)[C@@H](N)Cc1c[nH]c2ccccc12)[C@@H](C)O)[C@@H](C)O)C(=O)N[C@@H](CC(=O)O)C(=O)NC(C)(C)C(=O)N[C@@H](CCCCN)C(=O)N[C@@H](CCCNC(=N)N)C(=O)N[C@@H](C)C(=O)N[C@@H](CCC(N)=O)C(=O)N[C@@H](CCC(=O)O)C(=O)N[C@@H](Cc1ccccc1)C(=O)N[C@H](C(=O)NC(C)(C)C(=O)N[C@@H](Cc1c[nH]c2ccccc12)C(=O)N[C@@H](CC(C)C)C(=O)N[C@@H](CCC(=O)O)C(=O)N[C@@H](CC(=O)O)C(=O)N[C@@H](CCC(=O)O)C(=O)N1CCC[C@H]1C(=O)N[C@@H](CO)C(=O)N[C@@H](CO)C(=O)NCC(=O)N[C@@H](C)C(=O)N1CCC[C@H]1C(=O)N1CCC[C@H]1C(=O)N1CCC[C@H]1C(=O)N[C@@H](CO)C(=O)O)C(C)C
B3: Compound A1 (peptide)
peptide: YSHGTFTSDYSKYLD[Aib]KYAQEFV[Aib]WLEDEPSSGAPPPS-OH
modifications: N-terminus assumed
SMILES: CC(C)C[C@H](NC(=O)[C@H](Cc1ccc(O)cc1)NC(=O)[C@H](CCCCN)NC(=O)[C@H](CO)NC(=O)[C@H](Cc1ccc(O)cc1)NC(=O)[C@H](CC(=O)O)NC(=O)[C@H](CO)NC(=O)[C@@H](NC(=O)[C@H](Cc1ccccc1)NC(=O)[C@@H](NC(=O)CNC(=O)[C@H](Cc1c[nH]cn1)NC(=O)[C@H](CO)NC(=O)[C@@H](N)Cc1ccc(O)cc1)[C@@H](C)O)[C@@H](C)O)C(=O)N[C@@H](CC(=O)O)C(=O)NC(C)(C)C(=O)N[C@@H](CCCCN)C(=O)N[C@@H](Cc1ccc(O)cc1)C(=O)N[C@@H](C)C(=O)N[C@@H](CCC(N)=O)C(=O)N[C@@H](CCC(=O)O)C(=O)N[C@@H](Cc1ccccc1)C(=O)N[C@H](C(=O)NC(C)(C)C(=O)N[C@@H](Cc1c[nH]c2ccccc12)C(=O)N[C@@H](CC(C)C)C(=O)N[C@@H](CCC(=O)O)C(=O)N[C@@H](CC(=O)O)C(=O)N[C@@H](CCC(=O)O)C(=O)N1CCC[C@H]1C(=O)N[C@@H](CO)C(=O)N[C@@H](CO)C(=O)NCC(=O)N[C@@H](C)C(=O)N1CCC[C@H]1C(=O)N1CCC[C@H]1C(=O)N1CCC[C@H]1C(=O)N[C@@H](CO)C(=O)O)C(C)C
B4: Compound A4 (peptide)
peptide: YSHGTFTSDYSKYLD[Aib]KRAQEFVIWLEDEPSSGAPPPS-OH
modifications: N-terminus assumed
SMILES: CC[C@H](C)[C@H](NC(=O)[C@@H](NC(=O)[C@H](Cc1ccccc1)NC(=O)[C@H](CCC(=O)O)NC(=O)[C@H](CCC(N)=O)NC(=O)[C@H](C)NC(=O)[C@H](CCCNC(=N)N)NC(=O)[C@H](CCCCN)NC(=O)C(C)(C)NC(=O)[C@H](CC(=O)O)NC(=O)[C@H](CC(C)C)NC(=O)[C@H](Cc1ccc(O)cc1)NC(=O)[C@H](CCCCN)NC(=O)[C@H](CO)NC(=O)[C@H](Cc1ccc(O)cc1)NC(=O)[C@H](CC(=O)O)NC(=O)[C@H](CO)NC(=O)[C@@H](NC(=O)[C@H](Cc1ccccc1)NC(=O)[C@@H](NC(=O)CNC(=O)[C@H](Cc1c[nH]cn1)NC(=O)[C@H](CO)NC(=O)[C@@H](N)Cc1ccc(O)cc1)[C@@H](C)O)[C@@H](C)O)C(C)C)C(=O)N[C@@H](Cc1c[nH]c2ccccc12)C(=O)N[C@@H](CC(C)C)C(=O)N[C@@H](CCC(=O)O)C(=O)N[C@@H](CC(=O)O)C(=O)N[C@@H](CCC(=O)O)C(=O)N1CCC[C@H]1C(=O)N[C@@H](CO)C(=O)N[C@@H](CO)C(=O)NCC(=O)N[C@@H](C)C(=O)N1CCC[C@H]1C(=O)N1CCC[C@H]1C(=O)N1CCC[C@H]1C(=O)N[C@@H](CO)C(=O)O
B5: Compound A2 (peptide)
peptide: YSHGTFTSDYSKYLD[Aib]KSAQEFV[Aib]WLEDEPSSGAPPPS-OH
modifications: N-terminus assumed
SMILES: CC(C)C[C@H](NC(=O)[C@H](Cc1ccc(O)cc1)NC(=O)[C@H](CCCCN)NC(=O)[C@H](CO)NC(=O)[C@H](Cc1ccc(O)cc1)NC(=O)[C@H](CC(=O)O)NC(=O)[C@H](CO)NC(=O)[C@@H](NC(=O)[C@H](Cc1ccccc1)NC(=O)[C@@H](NC(=O)CNC(=O)[C@H](Cc1c[nH]cn1)NC(=O)[C@H](CO)NC(=O)[C@@H](N)Cc1ccc(O)cc1)[C@@H](C)O)[C@@H](C)O)C(=O)N[C@@H](CC(=O)O)C(=O)NC(C)(C)C(=O)N[C@@H](CCCCN)C(=O)N[C@@H](CO)C(=O)N[C@@H](C)C(=O)N[C@@H](CCC(N)=O)C(=O)N[C@@H](CCC(=O)O)C(=O)N[C@@H](Cc1ccccc1)C(=O)N[C@H](C(=O)NC(C)(C)C(=O)N[C@@H](Cc1c[nH]c2ccccc12)C(=O)N[C@@H](CC(C)C)C(=O)N[C@@H](CCC(=O)O)C(=O)N[C@@H](CC(=O)O)C(=O)N[C@@H](CCC(=O)O)C(=O)N1CCC[C@H]1C(=O)N[C@@H](CO)C(=O)N[C@@H](CO)C(=O)NCC(=O)N[C@@H](C)C(=O)N1CCC[C@H]1C(=O)N1CCC[C@H]1C(=O)N1CCC[C@H]1C(=O)N[C@@H](CO)C(=O)O)C(C)C
B6: Compound A79 (peptide)
peptide: YSHGTFTSDYSKYLD[Aib]KEAQEFV[Aib]WLEDEPSSGAPPPS-OH
modifications: N-terminus assumed
SMILES: CC(C)C[C@H](NC(=O)[C@H](Cc1ccc(O)cc1)NC(=O)[C@H](CCCCN)NC(=O)[C@H](CO)NC(=O)[C@H](Cc1ccc(O)cc1)NC(=O)[C@H](CC(=O)O)NC(=O)[C@H](CO)NC(=O)[C@@H](NC(=O)[C@H](Cc1ccccc1)NC(=O)[C@@H](NC(=O)CNC(=O)[C@H](Cc1c[nH]cn1)NC(=O)[C@H](CO)NC(=O)[C@@H](N)Cc1ccc(O)cc1)[C@@H](C)O)[C@@H](C)O)C(=O)N[C@@H](CC(=O)O)C(=O)NC(C)(C)C(=O)N[C@@H](CCCCN)C(=O)N[C@@H](CCC(=O)O)C(=O)N[C@@H](C)C(=O)N[C@@H](CCC(N)=O)C(=O)N[C@@H](CCC(=O)O)C(=O)N[C@@H](Cc1ccccc1)C(=O)N[C@H](C(=O)NC(C)(C)C(=O)N[C@@H](Cc1c[nH]c2ccccc12)C(=O)N[C@@H](CC(C)C)C(=O)N[C@@H](CCC(=O)O)C(=O)N[C@@H](CC(=O)O)C(=O)N[C@@H](CCC(=O)O)C(=O)N1CCC[C@H]1C(=O)N[C@@H](CO)C(=O)N[C@@H](CO)C(=O)NCC(=O)N[C@@H](C)C(=O)N1CCC[C@H]1C(=O)N1CCC[C@H]1C(=O)N1CCC[C@H]1C(=O)N[C@@H](CO)C(=O)O)C(C)C
B7: Compound A7 (peptide)
peptide: YSHGTFTSDYSKYLD[Aib]ARAQEFV[Aib]WLEDEPSSGAPPPS-OH
modifications: N-terminus assumed
SMILES: CC(C)C[C@H](NC(=O)[C@H](Cc1ccc(O)cc1)NC(=O)[C@H](CCCCN)NC(=O)[C@H](CO)NC(=O)[C@H](Cc1ccc(O)cc1)NC(=O)[C@H](CC(=O)O)NC(=O)[C@H](CO)NC(=O)[C@@H](NC(=O)[C@H](Cc1ccccc1)NC(=O)[C@@H](NC(=O)CNC(=O)[C@H](Cc1c[nH]cn1)NC(=O)[C@H](CO)NC(=O)[C@@H](N)Cc1ccc(O)cc1)[C@@H](C)O)[C@@H](C)O)C(=O)N[C@@H](CC(=O)O)C(=O)NC(C)(C)C(=O)N[C@@H](C)C(=O)N[C@@H](CCCNC(=N)N)C(=O)N[C@@H](C)C(=O)N[C@@H](CCC(N)=O)C(=O)N[C@@H](CCC(=O)O)C(=O)N[C@@H](Cc1ccccc1)C(=O)N[C@H](C(=O)NC(C)(C)C(=O)N[C@@H](Cc1c[nH]c2ccccc12)C(=O)N[C@@H](CC(C)C)C(=O)N[C@@H](CCC(=O)O)C(=O)N[C@@H](CC(=O)O)C(=O)N[C@@H](CCC(=O)O)C(=O)N1CCC[C@H]1C(=O)N[C@@H](CO)C(=O)N[C@@H](CO)C(=O)NCC(=O)N[C@@H](C)C(=O)N1CCC[C@H]1C(=O)N1CCC[C@H]1C(=O)N1CCC[C@H]1C(=O)N[C@@H](CO)C(=O)O)C(C)C

Biological target: human glucagon receptor (GCGR) (human, UniProt P47871 26-477)
Assay: cell-based or functional assay

Binder | hGCGR pEC50 (cAMP) [pEC50]
B1 | 10.8
YSHGTFTSDYSKYLDSARAQEFVKWLEDEPSSGAPPPS-NH2 [Compound A5] | 11.8
B2 | 11.7
B3 | 12.3
B4 | 11.8
B5 | 11.7
B6 | 10.2
B7 | 11.9
YSQGTFTSDYSKYLDAARAQEFVKWLEDEPKSKSPPPS-NH2 [Compound A3] | 12.1

Biological target: human GLP-1 receptor (GLP-1R) (human, UniProt P43220 24-463)
Assay: cell-based or functional assay

human GLP-1 receptor (GLP-1R), sequence (P43220 24-463): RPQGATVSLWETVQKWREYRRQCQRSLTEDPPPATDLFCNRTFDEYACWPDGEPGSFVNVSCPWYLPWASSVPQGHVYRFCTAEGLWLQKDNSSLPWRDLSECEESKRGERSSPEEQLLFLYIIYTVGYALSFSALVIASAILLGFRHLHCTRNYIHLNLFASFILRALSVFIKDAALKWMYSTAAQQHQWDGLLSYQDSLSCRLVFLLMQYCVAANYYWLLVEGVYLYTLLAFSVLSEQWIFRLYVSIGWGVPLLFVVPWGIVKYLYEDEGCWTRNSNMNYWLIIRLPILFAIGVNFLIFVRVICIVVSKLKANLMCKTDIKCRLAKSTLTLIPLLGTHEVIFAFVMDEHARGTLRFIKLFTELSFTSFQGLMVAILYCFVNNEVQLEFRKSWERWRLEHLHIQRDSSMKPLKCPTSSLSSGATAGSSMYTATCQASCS

Binder | hGLP1 pEC50 (cAMP) [pEC50]
B1 | < 9
YSHGTFTSDYSKYLDSARAQEFVKWLEDEPSSGAPPPS-NH2 [Compound A5] | 5.8
B2 | 5.3
B3 | 5.2
B4 | < 5
B5 | 5.4
B6 | < 9
B7 | < 9
YSQGTFTSDYSKYLDAARAQEFVKWLEDEPKSKSPPPS-NH2 [Compound A3] | 6.7
